Assay [1] addresses T1, AlexaFluor647-labeled PCSK9.
T1 construct: Used in the TR-FRET assay and in the internalization assay; also called AF647-PCSK9; AF-labeled PCSK9
The experiment in a line: TR-FRET competition assay: 1B20 titrated against 10 nM AF647-PCSK9; the blocked ligand is Eu-sLDLR (about 4 nM); the Ratio falls from about 6200 to about 1000 (right curve, squares). On the procedure: (§1) AlexaFluor647-labeled PCSK9 (final concentration 10 nM) was combined with varying amounts of 1B20 and to this was added Eu(8044)-labeled LDLR ectodomain to a final concentration of ˜4 nM (sufficient to give ˜20,000 counts at F1620 nM on the Rubystar) in […] (pH 7.4), 150 mM NaCl, 0.1 mM CaCl₂, 0.05% (w/v) BSA in a total volume of 50 μL using 96 well black Dynatech U bottom plates. After at least 90 minutes of equilibration, samples were read in a Rubystar reader (BMG Corp.) using 20 flashes per well, a 50 usec integration delay, and a 200 usec total integration time. Data were expressed as the ratio of (F1665/F1620×10000) and an IC₅₀ for 1B20 was determined from the inflection point of a sigmoidal dose-response curve using a standard four parameter fit.

Assay [2] concerns the target T2, hPCSK9v5His (human, UniProt Q8NBP7 31-692). The experiment in a line: cell-based or functional assay.
For assay [3], the target named is T3, mPCSK9v5His (mouse, UniProt Q80W65 35-694). The experiment in a line: cell-based or functional assay.
Assay [4] addresses T2, hPCSK9v5His. The experiment in a line: SPR Biacore 2000; Fab captured on anti-Fab IgG, PCSK9 in flow. On the procedure:
(§2) Anti-Fab IgG (Human specific) (Sigma, catalog #15260) was covalently coupled to surfaces 1 and 2 of a Sensor Chip CM5 via primary amine groups, using the immobilization wizard with the “Aim for immobilization” option using Biacore™ Amine Coupling Kit (cat#BR-1000-50. A target immobilization of 5000 RU was specified. The wizard uses a 7 minute activation with a 1:1 mixture of 100 mM NHS (N-Hydroxysuccinimide) and 400 mM EDC (1-ethyl-3-(3-dimethylaminopropyl)-carbodiimide), injects the ligand in several pulses to achieve the desired level, then deactivates the remaining surface with a 7 minute pulse of ethanolamine.
(§3) Anti-PCSK9 Fabs were captured on capture surface 2, and surface 1 was used as a reference for kinetic studies of Fab:PCSK9 interactions. […] 5-10 concentrations of hPCSK9v5H is or mPCSK9v5His antigens were flowed across the surface at […] for 3-4 minutes. 15-60 minutes dissociation time was allowed before regeneration of the Anti-Fab surface with a 30 second pulse of 10 mM glycine pH 2.0.
(§4) BiaEvaluation Software was used to evaluate the sensograms from the multiple concentration of PCSK9 antigen analyzed with each Fab, to estimate the kinetics constants of the Fab:PCSK9 interactions.

For assay [5], the target named is T3, mPCSK9v5His. The description is as above. On the procedure: as §2, §3, §4
Assay [6] concerns the target T2, hPCSK9v5His. In words: Bio-Rad ProteOn SPR, Fab against human PCSK9-V5-His. On the procedure:
Additional site-directed mutant variants of 1B20 were generated (mutations in the heavy chain) and are disclosed herein as SEQ ID NOs: 102-107. Kds of site-directed mutant variants of 1B20 Fabs were determined using a Bio-Rad ProteOn; with affinity being measured against human PCSK9-V5-His. The methodologies for measuring Fab affinities are essentially the same as previously described for Biacore®.

In assay [7] the target is T2, hPCSK9v5His. The experiment in a line: SPR Biacore 2000; IgG captured on goat anti-human IgG, PCSK9 in flow. On the procedure:
(§5) A goat Anti-Human IgG (Caltag, catalog #H10700) was covalently coupled to surfaces 1 and 2 of a Sensor Chip CM5 via primary amine groups, using the immobilization wizard with the “Aim for immobilization” option using Biacore™ Amine Coupling Kit (cat#BR-1000-50. A target immobilization of 5000 RU was specified. The wizard uses a 7 minute activation with a 1:1 mixture of 100 mM NHS (N-Hydroxysuccinimide) and 400 mM EDC (1-ethyl-3-(3-dimethylaminopropyl)-carbodiimide), injects the ligand in several pulses to achieve the desired level, then deactivates the remaining surface with a 7 minute pulse of ethanolamine.
(§6) Anti-PCSK9 IgGs were captured on capture surface 2, and surface 1 was used as a reference for kinetic studies of IgG:PCSK9 interactions. IgG was captured by flowing a 10 nM solution at 10 μl/min for 1-1.5 minutes to reach a target RL for an R max of 100-150 RU for the reaction. 5-10 concentrations of hPCSK9v5His or mPCSK9v5His antigens were flowed across the surface at 30 or 60 μl/minute for 4 minutes. 15-60 minutes dissociation time was allowed before regeneration of the Anti-IgG surface with a 60 second pulse of 10 mM Glycine pH 1.7.
(§7) BiaEvaluation Software was used to evaluate the sensograms from the multiple concentration of PCSK9 antigen analyzed with each IgG, to estimate the kinetics constants of the IgG:PCSK9 interactions.

Assay [8] deals with T3, mPCSK9v5His. The assay is described as above. On the procedure: as §5, §6, §7
In assay [9] the target is T1, AlexaFluor647-labeled PCSK9. In words: TR-FRET competition assay: 1B20 titrated against 10 nM AF647-PCSK9; the blocked ligand is Eu-sLDLR (about 4 nM); the Ratio falls from about 6200 to about 1000 (left curve, circles). On the procedure: as §1
T1 sequence (Q8NBP7 153-692, chain 1 of 2): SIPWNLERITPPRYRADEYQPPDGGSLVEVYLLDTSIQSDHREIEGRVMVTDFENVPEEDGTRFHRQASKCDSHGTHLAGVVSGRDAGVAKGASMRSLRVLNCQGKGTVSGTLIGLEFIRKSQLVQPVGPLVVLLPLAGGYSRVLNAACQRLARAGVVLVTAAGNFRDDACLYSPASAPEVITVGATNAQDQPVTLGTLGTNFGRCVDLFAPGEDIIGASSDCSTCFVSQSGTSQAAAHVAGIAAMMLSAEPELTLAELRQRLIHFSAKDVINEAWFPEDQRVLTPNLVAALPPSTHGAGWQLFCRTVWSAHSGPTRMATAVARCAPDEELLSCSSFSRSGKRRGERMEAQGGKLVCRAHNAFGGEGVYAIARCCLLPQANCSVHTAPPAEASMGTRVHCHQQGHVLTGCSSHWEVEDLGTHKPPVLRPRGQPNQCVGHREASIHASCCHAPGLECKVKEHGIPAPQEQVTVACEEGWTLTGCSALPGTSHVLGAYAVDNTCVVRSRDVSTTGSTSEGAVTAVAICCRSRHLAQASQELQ
T1 sequence (Q8NBP7 31-152, chain 2 of 2): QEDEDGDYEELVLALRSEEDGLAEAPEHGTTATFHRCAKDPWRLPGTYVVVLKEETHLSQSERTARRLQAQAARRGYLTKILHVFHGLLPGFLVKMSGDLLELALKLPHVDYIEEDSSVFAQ

T3 sequence (Q80W65 35-694 limits assumed): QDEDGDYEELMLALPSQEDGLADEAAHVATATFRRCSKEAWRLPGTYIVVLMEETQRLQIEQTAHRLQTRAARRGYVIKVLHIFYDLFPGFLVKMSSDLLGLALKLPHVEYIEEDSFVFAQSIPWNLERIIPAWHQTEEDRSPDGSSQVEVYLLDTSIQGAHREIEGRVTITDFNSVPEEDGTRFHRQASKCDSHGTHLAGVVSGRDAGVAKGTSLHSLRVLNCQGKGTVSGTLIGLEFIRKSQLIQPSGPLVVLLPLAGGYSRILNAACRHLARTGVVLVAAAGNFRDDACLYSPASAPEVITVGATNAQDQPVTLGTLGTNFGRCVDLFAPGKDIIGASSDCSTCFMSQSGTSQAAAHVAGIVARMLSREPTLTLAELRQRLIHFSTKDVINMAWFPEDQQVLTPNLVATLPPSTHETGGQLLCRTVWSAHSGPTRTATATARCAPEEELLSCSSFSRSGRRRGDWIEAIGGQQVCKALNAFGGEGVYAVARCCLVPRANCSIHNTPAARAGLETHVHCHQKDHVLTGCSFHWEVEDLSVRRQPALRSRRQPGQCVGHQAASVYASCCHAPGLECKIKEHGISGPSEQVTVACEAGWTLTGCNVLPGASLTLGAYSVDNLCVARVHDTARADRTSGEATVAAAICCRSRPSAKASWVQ
T2 sequence (Q8NBP7 31-692 limits assumed): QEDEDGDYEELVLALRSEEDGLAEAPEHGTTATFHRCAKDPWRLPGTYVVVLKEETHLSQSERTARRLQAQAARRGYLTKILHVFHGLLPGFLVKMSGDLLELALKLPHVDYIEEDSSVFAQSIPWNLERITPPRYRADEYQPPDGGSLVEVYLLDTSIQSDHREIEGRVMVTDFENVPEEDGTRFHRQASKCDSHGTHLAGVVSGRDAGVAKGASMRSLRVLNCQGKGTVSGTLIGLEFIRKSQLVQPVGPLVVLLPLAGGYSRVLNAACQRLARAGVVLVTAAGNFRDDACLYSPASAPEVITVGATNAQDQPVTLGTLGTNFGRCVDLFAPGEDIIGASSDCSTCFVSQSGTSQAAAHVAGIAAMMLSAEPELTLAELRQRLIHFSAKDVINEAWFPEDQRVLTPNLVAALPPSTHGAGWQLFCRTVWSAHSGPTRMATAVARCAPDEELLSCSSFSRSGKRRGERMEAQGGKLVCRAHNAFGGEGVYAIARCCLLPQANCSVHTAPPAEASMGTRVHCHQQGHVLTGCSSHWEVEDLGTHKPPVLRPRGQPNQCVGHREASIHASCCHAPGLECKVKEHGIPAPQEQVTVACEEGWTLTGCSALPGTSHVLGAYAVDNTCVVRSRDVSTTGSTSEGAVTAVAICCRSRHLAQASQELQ

B1: 1B20 Fab (Fab, V domains shown)
VH: QVQLVQSGAEVKKPGESLKISCKGSGYSFTNYWISWVRQMPGKGLEWMGIIYPGDSYTNYSPSFQGQVTISADKSISTAYLQWSSLKASDTAMYYCARDYWYKPLFDIWGQGTLVTVSS
VL: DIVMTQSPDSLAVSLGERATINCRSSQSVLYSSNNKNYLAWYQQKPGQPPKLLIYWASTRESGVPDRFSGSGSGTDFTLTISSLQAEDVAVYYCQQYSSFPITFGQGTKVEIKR
notes: His-tagged Fab expressed in E. coli and purified by IMAC; also called 6CX1B20
Consider B1, for which, in [1], the IC50 is 25.8 nM. In the assay with hPCSK9v5His [2], the “IC50, inhibition of PCSK9-dependent loss of cellular LDL-uptake (Exopolar assay, HEK cells)” value amounted to 145 nM. Moreover, the “IC50, inhibition of PCSK9-dependent loss of cellular LDL-uptake (Exopolar assay, HEK cells)” value with mPCSK9v5His [3] turned out to be 152 nM. In the assay with hPCSK9v5His [4], this molecule registered a Ka of 1.5e+09 M⁻¹, a Kd of 0.74 nM, a koff of 4.8e-05 s⁻¹ and a kon of 66000 M⁻¹ s⁻¹. Also, in the assay with mPCSK9v5His [5], the Ka stood at 2e+09 M⁻¹, the Kd was determined as 0.51 nM, the koff worked out at 7.2e-05 s⁻¹ and the on-rate (kon) came out at 141000 M⁻¹ s⁻¹.

B2: 1B20 Fab variant N59K (Fab, V domains shown)
VH: QVQLVQSGAEVKKPGESLKISCKGSGYSFTNYWISWVRQMPGKGLEWMGIIYPGDSYTKYSPSFQGQVTISADKSISTAYLQWSSLKASDTAMYYCARDYWYKPLFDIWGQGTLVTVSS
VL: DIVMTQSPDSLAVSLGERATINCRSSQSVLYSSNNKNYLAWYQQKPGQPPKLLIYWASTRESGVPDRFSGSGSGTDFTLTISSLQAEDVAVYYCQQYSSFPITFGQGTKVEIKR
notes: Site-directed variant of the 1B20 Fab, 'mutations in the heavy chain'
In the case of B2, the Kd in the assay with hPCSK9v5His [6] worked out at 0.013 nM. This counts as picomolar.

B3: 1B20 IgG (antibody, V domains shown)
VH: QVQLVQSGAEVKKPGESLKISCKGSGYSFTNYWISWVRQMPGKGLEWMGIIYPGDSYTNYSPSFQGQVTISADKSISTAYLQWSSLKASDTAMYYCARDYWYKPLFDIWGQGTLVTVSS
VL: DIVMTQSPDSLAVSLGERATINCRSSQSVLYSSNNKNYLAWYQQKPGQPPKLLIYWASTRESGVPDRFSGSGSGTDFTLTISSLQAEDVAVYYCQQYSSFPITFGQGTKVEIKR
notes: Full-length IgG2m4 with kappa light chain, expressed in HEK293 cells, purified on Protein A; also called 1B20 whole IgG; 1B20 IgG2m4
Regarding B3, the “IC50, inhibition of PCSK9-dependent loss of cellular LDL-uptake (Exopolar assay, HEK cells)” value with hPCSK9v5His [2] is 22 nM. For the same molecule, the “IC50, inhibition of PCSK9-dependent loss of cellular LDL-uptake (Exopolar assay, HEK cells)” value with mPCSK9v5His [3] came to 13 nM. In the assay with hPCSK9v5His [7], this molecule displayed a Ka of 1.4e+09 M⁻¹, a Kd of 0.89 nM, a koff of 4.3e-05 s⁻¹ and a kon of 53000 M⁻¹ s⁻¹. In the assay with mPCSK9v5His [8], this molecule showed a Ka of 7.4e+08 M⁻¹, a Kd of 1.4 nM, a koff of 0.00012 s⁻¹ and a kon of 89000 M⁻¹ s⁻¹. Besides, the IC50 in assay [9] turned out to be 2.8 nM.

B4: 1B20 Fab variant W101A (Fab, V domains shown)
VH: QVQLVQSGAEVKKPGESLKISCKGSGYSFTNYWISWVRQMPGKGLEWMGIIYPGDSYTNYSPSFQGQVTISADKSISTAYLQWSSLKASDTAMYYCARDYAYKPLFDIWGQGTLVTVSS
VL: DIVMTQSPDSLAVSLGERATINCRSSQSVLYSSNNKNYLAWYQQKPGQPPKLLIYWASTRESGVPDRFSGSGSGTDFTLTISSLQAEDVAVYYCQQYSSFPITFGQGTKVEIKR
notes: as for B2
For B4, the Kd with hPCSK9v5His [6] was 1.37 nM.

B5: 1B20 Fab variant W101F (Fab, V domains shown)
VH: QVQLVQSGAEVKKPGESLKISCKGSGYSFTNYWISWVRQMPGKGLEWMGIIYPGDSYTNYSPSFQGQVTISADKSISTAYLQWSSLKASDTAMYYCARDYFYKPLFDIWGQGTLVTVSS
VL: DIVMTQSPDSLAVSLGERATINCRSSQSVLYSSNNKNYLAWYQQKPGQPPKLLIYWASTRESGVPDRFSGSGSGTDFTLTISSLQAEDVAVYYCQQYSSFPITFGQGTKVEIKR
notes: as for B2
B5 registered a Kd with hPCSK9v5His [6] of 1.12 nM. This Kd and that of the molecule before are within 1.5-fold of each other.

B6: 1B20 Fab variant W101Y (Fab, V domains shown)
VH: QVQLVQSGAEVKKPGESLKISCKGSGYSFTNYWISWVRQMPGKGLEWMGIIYPGDSYTNYSPSFQGQVTISADKSISTAYLQWSSLKASDTAMYYCARDYYYKPLFDIWGQGTLVTVSS
VL: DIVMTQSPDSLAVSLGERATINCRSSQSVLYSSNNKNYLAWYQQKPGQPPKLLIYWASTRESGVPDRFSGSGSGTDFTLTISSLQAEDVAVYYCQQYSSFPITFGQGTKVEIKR
notes: as for B2
Consider B6, for which, in the assay with hPCSK9v5His [6], the Kd turned out to be 0.78 nM. The Kd values of the last two molecules are within 1.5-fold of each other.

B7: 1B20 Fab variant N59Q (Fab, V domains shown)
VH: QVQLVQSGAEVKKPGESLKISCKGSGYSFTNYWISWVRQMPGKGLEWMGIIYPGDSYTQYSPSFQGQVTISADKSISTAYLQWSSLKASDTAMYYCARDYWYKPLFDIWGQGTLVTVSS
VL: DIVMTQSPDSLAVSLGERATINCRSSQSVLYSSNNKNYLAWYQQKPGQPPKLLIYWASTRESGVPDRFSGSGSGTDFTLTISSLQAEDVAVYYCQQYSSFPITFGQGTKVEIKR
notes: as for B2
Turning to B7, in the assay with hPCSK9v5His [6], the Kd was 0.117 nM.

B8: 1B20 Fab variant N59R (Fab, V domains shown)
VH: QVQLVQSGAEVKKPGESLKISCKGSGYSFTNYWISWVRQMPGKGLEWMGIIYPGDSYTRYSPSFQGQVTISADKSISTAYLQWSSLKASDTAMYYCARDYWYKPLFDIWGQGTLVTVSS
VL: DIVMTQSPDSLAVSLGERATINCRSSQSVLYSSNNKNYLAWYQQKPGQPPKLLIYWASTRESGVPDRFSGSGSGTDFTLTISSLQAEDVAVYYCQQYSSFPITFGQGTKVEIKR
notes: as for B2
Consider B8, for which, in the assay with hPCSK9v5His [6], binding was put at a Kd of 0.049 nM.

For the origin of these results see patent US20130071379A1 (Merck Sharp & Dohme, published 2013).
